This is an account of results in US8703907B2, “Controlled drug release from dendrimers” (Prolynx LLC, priority 2010, dated 2014).

Data set [1] has as its target T1, GLP1 receptor (Rattus norvegicus, UniProt P32301).
T1 construct: in membrane or cell-based assays (e.g., RIN-m5f cells, ATCC); host or cells: RIN-m5f cells
T1 sequence (P32301 22-463): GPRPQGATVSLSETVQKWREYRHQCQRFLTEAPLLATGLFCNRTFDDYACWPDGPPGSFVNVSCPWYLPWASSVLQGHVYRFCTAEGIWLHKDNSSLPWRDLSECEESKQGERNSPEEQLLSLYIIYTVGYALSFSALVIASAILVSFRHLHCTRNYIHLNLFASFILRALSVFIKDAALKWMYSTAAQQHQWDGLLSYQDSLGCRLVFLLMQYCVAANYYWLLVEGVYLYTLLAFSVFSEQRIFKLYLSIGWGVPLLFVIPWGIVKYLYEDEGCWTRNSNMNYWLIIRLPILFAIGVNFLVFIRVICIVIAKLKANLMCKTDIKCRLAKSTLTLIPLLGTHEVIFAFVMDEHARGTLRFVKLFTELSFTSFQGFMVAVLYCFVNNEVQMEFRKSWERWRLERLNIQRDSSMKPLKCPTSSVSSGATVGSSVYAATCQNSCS
The data set can be described thus: GLP1 receptor agonism in membrane or cell-based assays after β-eliminative release. Conditions: native exendin released by mild base. The method, then:
The PEG and PEG-dendrimer conjugates are tested as agonists of the GLP1 receptor in membrane or cell-based assays (e.g., RIN-m5f cells, ATCC as described (Young, A., et al., (2000) WO00/66629) pages 74-75) before and after β-eliminative release of native exendin.

For data set [2], the system named is plasma proteases. The conditions noted are these: cited from earlier work.
The conditions of data set [3]: in vivo; cited from earlier work.
Data set [4] in a line: hydrolysis of carbamate in 50% human serum. The data set is classed as in vitro ADME. Conditions: 1 week at 37° C. The source says:
The half-lives for cleavage span 2 hr to >10 days. […] In general, compared to C—H, a) electron withdrawing groups at R^1 increase the rate; b) alkyl groups at R^3 increase the rate; and c) aryl moieties at R^3 decrease the rate.

The nature of data set [5]: β-eliminative cleavage of DNP-Lys carbamates (HPLC). Conditions: after 5 days at 37° C. and pH 7.4. The class given is physicochemical. The protocol:
A series of model linker scaffolds having a range of functional groups as potential pKa modulators (substituted aromatics, ketones, nitriles, sulfones) were designed, prepared and linked via carbamate bonds to Ne-2,4-dinitrophenyl-L-lysine (Ne-DNP-Lys) for evaluation of release rates; DNP-Lys is water soluble and is a strong chromophore to permit HPLC-UV analysis. Rates of release at pH 7.4 and/or 8.3 were determined.
The DNP carbamates were prepared as follows. A suspension of N-DNP-L-Lys HCl (35 mg, 0.1 mmol) in 600 μL of water was treated successively with 1.0 N NaOH (200 μL) and 1.0 M NaHCO3. A 0.1 M solution of the N—HS carbonate in acetonitrile (1.0 mL) was added to the stirred mixture to give a clear yellow solution. After 1 hr, the mixture was diluted with 10 mL water and loaded onto a Bond-Elut™ C18 extraction column (1 gm). The column was washed successively with water, 1% CF3CO2H/water, water, and 50% MeOH/water. The product was eluted with MeOH, then evaporated to give the product as a yellow glass. Kinetic analyses were performed by HPLC (C18; linear MeOH/water+0.5% HOAc gradient) using a UV/vis monitor. The areas under the DNP and starting material peaks were integrated to determine extent of reaction.
The half-lives for cleavage span 2 hr to >10 days. […]

Turning to “Exendin-4: 39-amino acid peptide from the Gila monster, agonist of the GLP-1 receptor”, in data set [1], the “activity as GLP1 agonists” value was “full activity”. Also, the “t1/2 against plasma proteases in vitro” value in data set [2] is roughly 10 h. Moreover, the half-life in data set [3] was 2.5 h.
For `O=C(N[C@@H](CCCCNc1ccc([N+](=O)[O-])cc1[N+](=O)[O-])C(=O)O)OCc1ccccc1` [O-benzyl-N—(Ne-2,4-DNP-Lys) carbamate], the “hydrolysis in 50% human serum” value in data set [4] is “no detectable hydrolysis”. Moreover, the cleavage entry in data set [5] is on record as “less than 0.25%”.
With GLP-1: glucagon-like peptide 1, the plasma lifetime in data set [3] is on record as roughly 5 min.

What is called half-life is the time in which the quantity being followed falls by half.
